Each block holds one binder with its values, some of them ahead of it.
Target: recombinant human CD137-ECD-Fc (APBio Inc.) (human, UniProt Q07011 24-186)
Assay: ELISA

recombinant human CD137-ECD-Fc (APBio Inc.), sequence (Q07011 24-186): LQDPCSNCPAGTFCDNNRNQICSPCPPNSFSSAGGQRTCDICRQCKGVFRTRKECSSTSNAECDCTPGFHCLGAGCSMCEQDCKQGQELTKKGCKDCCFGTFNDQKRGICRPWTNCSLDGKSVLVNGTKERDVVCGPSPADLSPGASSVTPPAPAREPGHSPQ

EC50: 151 pM
B1: anti-CD137 antibody clone 31 (antibody, V domains shown)
VH: not shown
VL: QSALTQPASVSGSPGQSITISCTGTSSDVGAYNFVSWYQQRPGKAPELMIYDVSDRPSGVSNRFSGSKSGNTASLTISGLQTEDEADYYCSSYTSSITRYVFGTGTKVTVLG

EC50: 184 pM
B2: anti-CD137 antibody clone 54 (antibody, V domains shown)
VH: QVQLVQSGAEVKKPGSTVKVSCKASGGTFSSYAISWVRQAPGQGLEWMGRIIPILGIANYAQKFQGRVTITADKSTSTAYMELSSLRSEDTAVYYCASPPYYDSSGYYPLGAFDIWGQGTMVTVSS
VL: SYELTQPPSVSVSPGQTASITCSGDKLGEKYASWYQQKAGQSPILVIYQDSKRPSGIPERFSGSNSGNTATLTISGLQAGDEADYYCQAWDGSSTYVFGTGTKVTVFG

Source: US20200407456A1 (published 2020)
